This experiment concerns the target MBP-DLC2 (dynein light chain-2 fused to maltose-binding protein) (UniProt Q96FJ2 1-89). Description: pull-down.

B1: GST-MVaf1 (myosin-Va medial tail fragment 1, MYO5A 1276-1328 [+B], fused to glutathione-S-transferase) (domain or fragment)
chain: QKEAIQPKDDKNTMTDSTILLEDVQKMKDKGEIAQAYIGLKETNRSSALDYHE
Turning to B1, the binding result is given as “binds”.

The values above are taken from paper PMC3613824 (Cell Death & Disease, 2013).
